Experiments:
[1] = tested on: HIV-1 virus, three clades (European, Indian and African origin); conditions: three clades of HIV-1; due to interference in entry of HIV-1 to host cells; cited from earlier work
HIV-1 NL4-3 = test: Inhibition of HIV-1 NL4-3 replication in peripheral blood lymphocytes (p24 antigen ELISA); format: cell-based; conditions: FIG. 2, similar to Enfuvirtide (T20)
[2] = tested on: HIV-1 Env SF162 mediated fusion of HeLa effector cells with HEK293-CCR5 target cells expressing human CD4; format: cell-based; conditions: β-Gal activity at 570 nm after 2.5 h at 37° C.; FIG. 4

B1: azurin: 128 amino acid P. aeruginosa protein with anticancer, anti-HIV-1 and antiparasitic activity (protein, UniProt P00282 21-148, looked up)
Azurin: AECSVDIQGNDQMQFNTNAITVDKSCKQFTVNLSHPGNLPKNVMGHNWVLSTAADMQGVVTDGMASGLDKDYLKPDDSRVIAHTKLIGSGEKDSVTFDVSKLKEGEQYMFFCTFPGHSALMKGTLTLK
In the case of B1, the “growth inhibition of HIV-1” value [1] is given as no less than 90%.

B2: MPT63 (protein, UniProt P9WIP1 30-159, looked up)
Immunogenic protein MPT63: AYPITGKLGSELTMTDTVGQVVLGWKVSDLKSSTAVIPGYPVAGQVWEATATVNAIRGSVTPAVSQFNARTADGINYRVLWQAAGPDTISGATIPQGEQSTGKIYFDVTGPSPTIVAMNNGMEDLLIWEP
For B2, the EC50 (HIV-1 NL4-3) was 0.01 nM and the “inhibition of cell to cell fusion compared to positive control Enfuvirtide (T20)” value [2] was “more inhibition of cell to cell fusion”.

Source: US20140011735A1, “ANTIVIRAL COMPOSITION” (AMRITA THERAPEUTICS LIMITED, priority 2011, published 2014)
